According to article PMC9342783:

How the values were obtained:
[1] = target: membrane translocated mature FopA (Francisella tularensis outer membrane protein A) with C-terminal octa-histidine tag (F. tularensis subsp. tularensis strain SCHU S4); test: small angle X-ray scattering (SEC-SAXS)
[2] = target: membrane translocated mature FopA (Francisella tularensis outer membrane protein A) with C-terminal octa-histidine tag (F. tularensis subsp. tularensis strain SCHU S4); test: native gel or EMSA

**Q.** “membrane translocated mature FopA (Francisella tularensis outer membrane protein A) with C-terminal octa-histidine tag (natural protein)” was tested. Which stoichiometry N [1] did it give?
**A.** The stoichiometry N was 2.

**Q.** What about the stoichiometry N [2] of the same substance?
**A.** The stoichiometry N was 2.
